{
  "source": "patent US20150133651",
  "about": "“CslA9 Gluco-mannan Synthase Gene” (published 2015)",
  "key": {"MYB46": {"target": "MYB46 (Arabidopsis thaliana, UniProt Q9LXV2 SEQ:1-280)", "sequence (Q9LXV2 whole entry, the tested form may be a part)": "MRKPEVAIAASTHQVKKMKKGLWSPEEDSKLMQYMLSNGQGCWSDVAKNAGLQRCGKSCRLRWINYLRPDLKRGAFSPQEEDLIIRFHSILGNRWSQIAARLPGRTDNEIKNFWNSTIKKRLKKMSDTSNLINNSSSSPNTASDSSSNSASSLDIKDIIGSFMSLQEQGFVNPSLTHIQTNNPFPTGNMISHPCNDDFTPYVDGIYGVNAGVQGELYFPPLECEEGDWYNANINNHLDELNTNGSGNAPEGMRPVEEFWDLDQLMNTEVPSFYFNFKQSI", "test": "EMSA; 10 mM Tris pH 7.5, 50 mM KCl, 5 mM MgCl2, poly(dI-dC); competed by 50x unlabeled probe", "details": "tags: GST fusion, E. coli Rosetta gami; label: 32P", "method": "(§1) DNA fragments for EMSA were obtained by PCR-amplification and labeled with [γ-³²P]ATP using T4 polynucleotide kinase (NEB). The end-labeled probes were purified with Microspin S-200 HR column (GE Healthcare). The labeled DNA fragments were incubated for 25 min with 50 ng of GST-MYB46, GST-MYB83, GST-bZIP1 and GSTANAC041 in a binding buffer [10 mM Tris (pH 7.5), 50 mM KCl, 1 mM DTT, 2.5% glycerol, 5 mM MgCl₂, 100 μg/ml BSA, and 50 ng/μL poly(dI-dC)]. Five percent polyacrylamide gel electrophoresis (PAGE) was used to separate the recombinant protein-bound DNA fragments from the unbound ones. The gel was dried and placed in a film cassette and exposed to X-ray film (Kodak) for overnight. Radioactive fragments were visualized by autoradiography.\nTo evaluate whether MYB46 could directly bind to the CSLA9 promoter sequence, electrophoretic mobility shift assays (EMSAs) were performed with the GST-MYB46 fusion protein as described in Example 1."}, "MYB83 (At3g08500)": {"target": "MYB83 (At3g08500) (Arabidopsis thaliana, UniProt Q9C6U1 Q9C6U1:1-343)", "sequence (Q9C6U1 whole entry, the tested form may be a part, one chain of several)": "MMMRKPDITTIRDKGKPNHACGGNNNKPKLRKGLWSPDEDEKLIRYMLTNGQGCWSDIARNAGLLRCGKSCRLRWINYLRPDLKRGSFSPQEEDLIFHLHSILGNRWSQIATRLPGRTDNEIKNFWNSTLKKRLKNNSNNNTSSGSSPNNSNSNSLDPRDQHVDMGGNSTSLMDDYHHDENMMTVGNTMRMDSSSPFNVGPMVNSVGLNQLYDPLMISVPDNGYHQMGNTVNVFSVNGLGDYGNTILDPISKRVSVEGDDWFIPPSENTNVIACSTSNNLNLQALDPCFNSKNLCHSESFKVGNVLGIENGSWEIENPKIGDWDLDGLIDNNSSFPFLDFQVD", "test": "EMSA; 10 mM Tris pH 7.5, 50 mM KCl, 5 mM MgCl2, poly(dI-dC)", "details": "tags: GST fusion, E. coli Rosetta gami; label: 32P", "method": "as §1"}},
  "data": [
    {"binder": "CSLA9 promoter -705 to -556 (dsDNA) DNA 1: CTTAAAATAACAATTTGTTTTGTATCTTCGCCTGGACGTCATTAATGTTTGTGTCGTTCAATAATGTTTGGTAGTTATATATAGAAAGAGCAAATTTATGGTTGATTGATGGTGCAAAAAAATTCATTTCTCTATATTCTAGAGAAATAA DNA 2: TTATTTCTCTAGAATATAGAGAAATGAATTTTTTTGCACCATCAATCAACCATAAATTTGCTCTTTCTATATATAACTACCAAACATTATTGAACGACACAAACATTAATGACGTCCAGGCGAAGATACAAAACAAATTGTTATTTTAAG", "values": [
      {"measurement": "binding result", "setting": "MYB46", "result": "binds"},
      {"measurement": "binding result", "setting": "MYB83 (At3g08500)", "result": "binds"}
    ]}
  ]
}
